The labels stand for the following.
B5: SpPCNA (recombinant S. pombe PCNA) (natural protein, UniProt Q03392 1-260, looked up)
chain: MLEARFQQAALLKKLLDAIKELVTDANFDCNDNGISLQAMDSSHVALVSMLIKSDGFEPYRCDRNIALGINLNALSKVLRCAQNEDLVTLKAEDTPEVLNLVFESEKNDRISDYDVKLMDIDQEHLGIPDIEYDATITMPAAEFQRITRDLLTLSDSVTINASKEGVRFSCKGDIGNGSTTLKQHTDLSDQDQSIEISLTQAVTLTFSLKYLAQFTKATPLATRVTLSMSNDVPLLVEYKMESGFLRFYLAPKIGEEDEE
B8: Pcf1 (large subunit of SpCAF-1) (natural protein, S. pombe, UniProt Q1MTN9 1-544, looked up)
chain: MNSESVDSDVAASTSNKGNELCSSSTDITSLSVSSPNESVIHSSHSASEADEYVCKLSYEGNRKKRIYNGSAEAGKEKKLQKQRAQEERIRQKEAERLKREKERQQREQEKKLREQEKIAAKKMKELEKLEKERIRLQEQQRRKEERDQKLREKEEAQRLRQEQILNKERQQLKLNNFFTKGVEKRIAPNENFVADKTDELNEFEKEFRPFFIKHQMSLSKYPSPNESDSFLDEVLSTSKSYPLKLNDIFTPSDAVSSANSLGVSNRNSENEVRQLMSAYQDPSVSKPQEILSCLSQIPIKFIFFYQDVRPPYFGSYTKTHSHGSNVLLNPWLEDEDIDYTYDSEAEWVADEEDDGEDLESEDEEVDNSDDIVEDGDNAFVDDEDDDKDSVNASNTHRSSGPLEVIVEGPVWDSKFLPDFNCLSLIEPISSFSASTYLQIDPKEDLWASQDTAPASSGMTIGPTSSLSDDLQVRFPSEDIPKFIEYVRNSHDNKVFLIENLRHMFPYVTKNIISETLGKVAVRKGKSVSDGWIIKENFASLLSS

The target in series [1] is B5. Kind of series: ITC. (ITC needs no label: the signal is the heat of the interaction.)
Series [2] concerns the target B8. Kind of series: SEC-SAXS.
For series [3], the target named is T1, S. pombe histones H3−H4 (S. pombe, UniProt P09988 1-136; P09322 1-103). The series can be described thus: NMR titration.
For series [4], the target named is SpCAF-1 complex (Pcf1-Pcf2-Pcf3), wild type, full length (S. pombe, UniProt Q1MTN9 1-544; O13985 1-512; Q9Y825 1-408). The series can be described thus: native gel or EMSA. In general terms: A gel shift assay detects complexes by their altered migration in electrophoresis.
The target of series [5] is FLAG-Pcf1-ED* (expressed from the endogenous pcf1 gene) (S. pombe, UniProt Q1MTN9 1-544, Y340A | W348A). The series can be described thus: co-IP.
Series [6] deals with the molecule itself. Kind of series: SEC.
For series [7], the target named is T1, S. pombe histones H3−H4. The series can be described thus: NMR titration. The source holds these as a separate data set.

The record followed here is paper PMC10942606 (eLife, 2023).

Where two headings read alike, the source gives them in different places.

B1: Pcf1_KER-PIP (56-185) (domain or fragment, S. pombe, UniProt Q1MTN9 56-185, looked up)
chain: KLSYEGNRKKRIYNGSAEAGKEKKLQKQRAQEERIRQKEAERLKREKERQQREQEKKLREQEKIAAKKMKELEKLEKERIRLQEQQRRKEERDQKLREKEEAQRLRQEQILNKERQQLKLNNFFTKGVEK
As a reminder, the Kd is the free concentration of one partner at which half of the binding sites on the other are occupied at equilibrium, for simple one-to-one binding. One may read the stoichiometry N as a count of units in the complex or per binding partner. B1: in series [1], the Kd was found to be 0.7 ± 0.2 µM, the dH stood at 2.9 ± 0.6 kCal.M^–1 and the “stoichiometry N” value turned out to be 0.64 ± 0.04.

B2: Pcf1_KER*-PIP (56-185, R147E-K150E-K154E-R161E-K168E) (domain or fragment, S. pombe, UniProt Q1MTN9 56-185, looked up)
chain: KLSYEGNRKKRIYNGSAEAGKEKKLQKQRAQEERIRQKEAERLKREKERQQREQEKKLREQEKIAAKKMKELEKLEKERIRLQEQQRRKEEEDQELREEEEAQRLEQEQILNEERQQLKLNNFFTKGVEK
As to B2, in series [1], the Kd stood at 7.1 ± 1.5 µM, the dH came out at 1 ± 0.5 kCal.M^–1 and the “stoichiometry N” value amounted to 0.7 ± 0.2.

B3: Pcf2 (medium subunit of SpCAF-1) (natural protein, S. pombe, UniProt O13985 1-512, looked up)
chain: MRAEVLQIRWHYDANDDHTPIYSVDFQKNSLNKFATCGGDSKIRIWQLITSESSTKVEYLSTLSRHTQAVNVVRFNPEGNILATAGDEGTIMLWVPTNTPITTLADDAEELALAKEYWKVKIVCRSMGSEIYDLCWSVDSNFLIAGAMDNSLRLYDAHTGQLLTQKFDHSHYVQGVCWDPLNQYIVSESSDRSICLYEIQEEKKNPKKFQLVLKSRICRIEYNVTKFELISVTKPLNNDESSGISEPIETSNNNESPVSKHEALSSTANIVKDGSLERTEPPNSLNSKISYSLYCNETLVSFFRRPAFSPDGLLLVTPAGRLRPHGQPNFEVPYTAYIYTRGSITKQPVACLNGFKKPVIAVRFSPIHYELNSFSNFSFTSVSFNLPYRMVFAVACQDAVYIYDTQTCKPFYRAVNLHYSNLTDIAWNDDGNVLLMTSIDGFCSVITFEPGELGVKSQHKISLPEKRSASPSSIDDSQDNTAGGPATTTLIPRKVESSKVSKKRIAPTPVYP
For the molecule B3, the “stoichiometry N” value in series [2] was 1.

B4: Pcf1_ED (325-396) (domain or fragment, S. pombe, UniProt Q1MTN9 325-396, looked up)
chain: SNVLLNPWLEDEDIDYTYDSEAEWVADEEDDGEDLESEDEEVDNSDDIVEDGDNAFVDDEDDDKDSVNASNT
As for B4, the binding result in series [3] was “binds”. Turning to B5, in series [4], the binding result is “binds”.

B6: PCNA (endogenous, S. pombe) (natural protein, S. pombe (endogenous in S. pombe), UniProt Q03392 1-260, looked up)
chain: MLEARFQQAALLKKLLDAIKELVTDANFDCNDNGISLQAMDSSHVALVSMLIKSDGFEPYRCDRNIALGINLNALSKVLRCAQNEDLVTLKAEDTPEVLNLVFESEKNDRISDYDVKLMDIDQEHLGIPDIEYDATITMPAAEFQRITRDLLTLSDSVTINASKEGVRFSCKGDIGNGSTTLKQHTDLSDQDQSIEISLTQAVTLTFSLKYLAQFTKATPLATRVTLSMSNDVPLLVEYKMESGFLRFYLAPKIGEEDEE
In the case of B6, in series [5], the “fold change of bound PCNA against WT Pcf1” value was 8 fold of WT Pcf1.

B7: Pcf3 (small subunit of SpCAF-1) (natural protein, S. pombe, UniProt Q9Y825 1-408, looked up)
chain: MNTELDMQNFEHIKFLENQISEDHFRWKKNSKHLYNLLITRTLTWPSLSIQWLSAMESITEKAVLKNRLLLGTHAAEGMPNFLQLADLDLPDFNQTILDPVKHYNEDTGELGGYSMQHSCKFQISQRILHNGDVNRVRHMPQNPNIIATMSSCGNAYIFDRTKYTSMPAEEFLPNISLIGHKKEGFGLSWNRQQNCRLVTAANDSKILEWDLNNFSRDTRCLTPVKDFHYDDSPVNDVEYHPHHTNLYIAVNDNGIAFICDNRLQQTCSKTVKASNPLFSVRHNPSIATLFALGSEQDLQLWDLRNLNKSVFNTSEDLSDNRLKVPSRLTLGGTSLSWSWRHSGRIVSACQEYCYVWNFNKANPLEFVHAGHKGTVNEVDFDPFEAQCIASVADDNELHIWKPNVIVN
Turning to B7, in series [2], the “stoichiometry N” value amounted to 1. B8: the binding result in series [6] and in series [7] was “binds” each time.

B9: SpCAF-1-KER* complex (Pcf1 R147E-K150E-K154E-R161E-K168E, Pcf2, Pcf3) (complex, S. pombe)
chain 1: MNSESVDSDVAASTSNKGNELCSSSTDITSLSVSSPNESVIHSSHSASEADEYVCKLSYEGNRKKRIYNGSAEAGKEKKLQKQRAQEERIRQKEAERLKREKERQQREQEKKLREQEKIAAKKMKELEKLEKERIRLQEQQRRKEEEDQELREEEEAQRLEQEQILNEERQQLKLNNFFTKGVEKRIAPNENFVADKTDELNEFEKEFRPFFIKHQMSLSKYPSPNESDSFLDEVLSTSKSYPLKLNDIFTPSDAVSSANSLGVSNRNSENEVRQLMSAYQDPSVSKPQEILSCLSQIPIKFIFFYQDVRPPYFGSYTKTHSHGSNVLLNPWLEDEDIDYTYDSEAEWVADEEDDGEDLESEDEEVDNSDDIVEDGDNAFVDDEDDDKDSVNASNTHRSSGPLEVIVEGPVWDSKFLPDFNCLSLIEPISSFSASTYLQIDPKEDLWASQDTAPASSGMTIGPTSSLSDDLQVRFPSEDIPKFIEYVRNSHDNKVFLIENLRHMFPYVTKNIISETLGKVAVRKGKSVSDGWIIKENFASLLSS
chain 2: MRAEVLQIRWHYDANDDHTPIYSVDFQKNSLNKFATCGGDSKIRIWQLITSESSTKVEYLSTLSRHTQAVNVVRFNPEGNILATAGDEGTIMLWVPTNTPITTLADDAEELALAKEYWKVKIVCRSMGSEIYDLCWSVDSNFLIAGAMDNSLRLYDAHTGQLLTQKFDHSHYVQGVCWDPLNQYIVSESSDRSICLYEIQEEKKNPKKFQLVLKSRICRIEYNVTKFELISVTKPLNNDESSGISEPIETSNNNESPVSKHEALSSTANIVKDGSLERTEPPNSLNSKISYSLYCNETLVSFFRRPAFSPDGLLLVTPAGRLRPHGQPNFEVPYTAYIYTRGSITKQPVACLNGFKKPVIAVRFSPIHYELNSFSNFSFTSVSFNLPYRMVFAVACQDAVYIYDTQTCKPFYRAVNLHYSNLTDIAWNDDGNVLLMTSIDGFCSVITFEPGELGVKSQHKISLPEKRSASPSSIDDSQDNTAGGPATTTLIPRKVESSKVSKKRIAPTPVYP
chain 3: MNTELDMQNFEHIKFLENQISEDHFRWKKNSKHLYNLLITRTLTWPSLSIQWLSAMESITEKAVLKNRLLLGTHAAEGMPNFLQLADLDLPDFNQTILDPVKHYNEDTGELGGYSMQHSCKFQISQRILHNGDVNRVRHMPQNPNIIATMSSCGNAYIFDRTKYTSMPAEEFLPNISLIGHKKEGFGLSWNRQQNCRLVTAANDSKILEWDLNNFSRDTRCLTPVKDFHYDDSPVNDVEYHPHHTNLYIAVNDNGIAFICDNRLQQTCSKTVKASNPLFSVRHNPSIATLFALGSEQDLQLWDLRNLNKSVFNTSEDLSDNRLKVPSRLTLGGTSLSWSWRHSGRIVSACQEYCYVWNFNKANPLEFVHAGHKGTVNEVDFDPFEAQCIASVADDNELHIWKPNVIVN
With B9, the binding result in series [7] was “binds”.
